# Reference: paper PMC8026773 (Alzheimer's & dementia : the journal of the Alzheimer's …, 2020)
# Molecular target: GST-Aβ42 (monomeric amyloid beta 1-42 as a GST-fusion protein) (UniProt P05067 672-713)
# Assay: BLI
# Sequence of GST-Aβ42 (monomeric amyloid beta 1-42 as a GST-fusion protein) (P05067 672-713): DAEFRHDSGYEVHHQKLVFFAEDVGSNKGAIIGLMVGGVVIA
row,Binder,Kd
1,"human sTREM2 (aa 19-157), wild type, in solution (domain or fragment, UniProt Q9NZC2 19-157, looked up) HNTTVFQGVAGQSLQVSCPYDSMKHWGRRKAWCRQLGEKGPCQRVVSTHNLWLLSFLRRWNGSTAITDDTLGGTLTITLRNLQPHDAGLYQCQSLHGSEADTLRKVLVEVLADPLDHRDAGDLWFPGESESFEDAHVEH",3.8 µM
2,"human TREM2 Ig domain (aa 19-134), wild type, without BirA tag, in solution (domain or fragment, UniProt Q9NZC2 19-134, looked up) HNTTVFQGVAGQSLQVSCPYDSMKHWGRRKAWCRQLGEKGPCQRVVSTHNLWLLSFLRRWNGSTAITDDTLGGTLTITLRNLQPHDAGLYQCQSLHGSEADTLRKVLVEVLADPLD",5.1 µM
